From patent US20160002672A1, “PRODUCTION OF ISOPRENE, ISOPRENOID, AND ISOPRENOID PRECURSORS USING AN ALTERNATIVE LOWER MEVALONATE PATHWAY” (DANISCO US INC., priority 2012, published 2016)
Values joined by “and” are separate entries in the source; they are usually repeats but may differ in a detail not shown here. Identical values can stand only once.

B1: S. cerevisiae MVD: Mevalonate decarboxylase (MVD) from Saccharomyces cerevisiae used as a reference (protein, UniProt P32377 1-396, looked up)
Diphosphomevalonate …: MTVYTASVTAPVNIATLKYWGKRDTKLNLPTNSSISVTLSQDDLRTLTSAATAPEFERDTLWLNGEPHSIDNERTQNCLRDLRQLRKEMESKDASLPTLSQWKLHIVSENNFPTAAGLASSAAGFAALVSAIAKLYQLPQSTSEISRIARKGSGSACRSLFGGYVAWEMGKAEDGHDSMAVQIADSSDWPQMKACVLVVSDIKKDVSSTQGMQLTVATSELFKERIEHVVPKRFEVMRKAIVEKDFATFAKETMMDSNSFHATCLDSFPPIFYMNDTSKRIISWCHTINQFYGETIVAYTFDAGPNAVLYYLAENESKLFAFIYKLFGSVPGWDKKFTTEQLEAFNHQFESSNFTARELDLELQKDVARVILTQVGSGPQETNESLIDAKTGLPKE
B2: S378Pa3-2 PMevDC: phosphomevalonate decarboxylase isolated from a soil metagenomic library, SEQ ID NO: 18 (protein)
chain: MDYYYRVINNNEIPMKSPEFLEVSALAHPNIAFIKYWGNRDNDLRLPCNGSLSMNLSGLETKTSVQFDPSLSADQFKLSGKPIEWDALRRVSDFLEIVRDLAGISFFAKVESENSFPSGAGIASSASAFAALALAASKAAGLSLDEEALSRLARRGSGSACRSIPDGFVEWQAGSTDQDSFAWSIAPADHWDLVDLICVLNSEHKTVGSTGGHALASTSDLHLLRQERVEERIEICRKAILDRDFEHFASVVEEDSNLMHAVMRTSKPPLNYWLPETEVILWKVIHWRKKGIPVCSTVDAGPNVHVLTLSSEAEKVEALLKECPGVQSIFKARAGQGAQLI
modifications: Isolated from a metagenomic library constructed from soil samples
B3: Herpetosiphon PMevDC: Herpetosiphon aurantiacus phosphomevalonate decarboxylase, SEQ ID NO: 16, Genbank YP_001544383 (protein, listed as Herpetosiphon aurantiacus)
chain: MKQLSHAATAVACANIAFIKYWGQHDSQLTLPTNGSISMNLDGCLTETTVQCLPEAVDDSVWLALSGGEEVQAKGRQFERVIQQIERLRQLAGVTERVEVRSRNNFPSDAGIASSAAAFAALTRAAASAFRLELDEAELSRLTRLSGSGSACRSIPAGFVEWYNDGTHAGSYAAQIAPPEHWNLVDIVAVISTEAKHVASTSGHSVATTSPYFSVRLEGIEQRLADVRQGILERDIERLGRASEADAMSMHVIAMTAQPSTMYWLPGTLAVMQAVQRWRAQDNLQSYWTIDAGPNVHVICEAKDAPEVEARLCELDAVQWTIVNGAGPEARLVG
B4: H. aurantiacus IPK: Herpetosiphon aurantiacus isopentenyl phosphate kinase, SEQ ID NO: 19, Genbank YP_001545053 (protein, listed as Herpetosiphon aurantiacus)
chain: MNKPIFIKLGGSMLTDKTTAERLVDQTLKQVVTDLSAWRQAHPNQPILLGHGGGSFGHYWAERYQTAQGIINEQSWWGVARVADAMARLNRAVVGACLDADLPAIGIQPMASSLANAGEIQQIGSQPLATLLAAGTIPVIYGDVLLDVAQGCTIASTERIFSALVGPLQPTQIILLGEQAVYDADPRQHADAQPIPLINRTNYATIIARLGGSHGVDVTGGMRNKVEAMWQLVQQAPQLEIWICGPQQLQSALSGQLNGPGTIIKLD

Legend:
[1] = Kinetic characterization of decarboxylases (coupled spectrophotometric assay), diphosphomevalonate as substrate; format: biochemical; conditions: 34° C., 5 mM ATP, 10-250 μM (R)-diphosphomevalonate; for kcat ± SD, Diphosphomevalonate: * using 1 mM substrate; for Km: read-out: KM ± SD, Diphosphomevalonate
Method: (§1) PMevDCs were incubated in the presence of mevalonate, phosphomevalonate, diphosphomevalonate, ATP, MgCl2 and the products of the reactions were confirmed by LC-MS. Mevalonate decarboxylase (MVD) from Saccharomyces cerevisiae was used as a reference. The catalytic activities of the decarboxylases were measured using a modified spectrophotometric assay that coupled ADP formation to pyruvate synthesis and reduction to lactate. The initial rate of disappearance of NADH was monitored at 340 nm on a SpectraMax M5 (Molecular Devices) to measure the reaction rate catalyzed by the PMevDCs. Samples for reaction rate studies contained 0.8 mM phosphoenolpyruvate, 0.05 mM DTT, 0.32 mM NADH, 10 mM MgCl2, 4 U lactate dehydrogenase, 4 U pyruvate kinase, 5 mM ATP and 10-250 μM (R)-phosphomevalonate or 10-250 μM (R)-diphosphomevalonate. All reactions were performed at 34° C. Reaction rate data was processed using Microsoft Excel and kinetic parameters were determined using Kaleidagraph.

[2] = In vitro metabolite measurement, substrate conversion by crude E. coli lysate, substrate MVPP; format: biochemical; conditions: crude extract from E. coli DH10b overexpressing S378Pa3-2
Method: (§2) In vitro assays were done with crude extracts from E. coli DH10b overexpressing pMCM2212. […] Negative control assays were done with extracts of E. coli harboring pTrcHis2b without insert. Substrates for in vitro conversions were mevalonate (MVA), mevalonate phosphate (MVP) also referred to as mevalonate 5-phosphate, mevalonate diphosphate (MVPP) also referred to as mevalonate 5-pyrophosphate, and isopentenyl phosphate (IP). Substrate conversion and product formation was analyzed by LC/MS.
(§3) Mass spectrometric analysis of metabolites was performed using a TSQ Quantim triple quadrupole instrument (Thermo Scientific). System control, data acquisition, and data analysis were done with XCalibur and LCQuan software (Thermo Scientific). About 10 μL samples were applied to a C18 Synergi MAX-RP HPLC column (150×2 mm, 4 uM, 80 A, Phenomenex) equipped with the manufacturer-recommended guard cartridge. The column was eluted with a gradient of 15 mM acetic acid+10 mM tributylamine in MilliQ-grade water (solvent A) and LCMS-grade methanol from Honeywell, Burdick & Jackson (solvent B). […] Concentrations of metabolites in cell extracts were determined based on calibration curves obtained by injection of commercial standards dissolved in 20% methanol/50 mM NH4Ac buffer (pH 7.0) to 0.5 ppm to 50 ppm final concentration. […]

[3] = SDS-PAGE analysis of His-tagged and TEV protease cleaved PMevDCs and IPKs (solubility); format: physicochemical; conditions: FIG. 9
Method: Strains MCM2257, MCM2258, MCM2259, MCM2260, MCM2261, and MCM2262 were inoculated in 1 liter of LB medium containing the appropriate antibiotic and incubated at 34° C. for 7 hours from overnight cultures grown at 34° C. in LB broth containing the appropriate antibiotic (Table 7). Cultures at an OD 0.5-0.7 were induced with 200 μM IPTG. After induction, cells were harvested by centrifugation at 10000×g for 10 minutes. After removal of the supernatant, the cell pellets were resuspended in 40 mL lysis buffer containing 50 mM KPO4, pH 8.0, 0.3 M NaCl, 0.02 mM imidizole, 1 mg/mL lysozyme, and 1 mg/mL DNAase. The cells were lysed using a french pressure cell at 14,000 psi and the cell lysate was centrifuged at 50,000×g for 1 hour. The supernatant was collected, passed over a Ni-affinity resin before the resin was washed with 10 column volumes of lysis buffer containing 50 mM imidazole. The protein was eluted with 5 column volumes of lysis buffer containing 250 mM imidizole. Collected fractions were concentrated and passed over PD-10 columns for buffer exchange and the final collected protein samples were >95% pure according to SDS-PAGE analysis. The purified samples were incubated with TEV protease overnight at 4° C. to remove histidine tags from the purified proteins. The digested samples were subsequently passed over Ni-affinity resin and the flow-through was collected and analyzed by SDS-PAGE.
H. aurantiacus PMevDC (lanes 2 and 3), H. aurantiacus IPK (lanes 4 and 5), and S378Pa3-2 PMevDC (lanes 6 and 7) were all soluble whether they were expressed with an attached His-tag or without a His-Tag (FIG. 9).

[4] = Kinetic characterization of decarboxylases (coupled spectrophotometric assay), phosphomevalonate as substrate; format: biochemical; conditions: 34° C., 5 mM ATP, 10-250 μM (R)-phosphomevalonate, * using 1 mM substrate
Method: as §1

[5] = In vitro metabolite measurement, substrate conversion by crude E. coli lysate, substrate MVP; format: biochemical; conditions: crude extract from E. coli DH10b overexpressing S378Pa3-2
Method: as §2, §3

[6] = In vitro metabolite measurement, substrate conversion by crude E. coli lysate, substrate IP; format: biochemical; conditions: crude extract from E. coli DH10b overexpressing S378Pa3-2
Method: as §2, §3

screening host V. 05 = assay: Activity-based screening for PMevDC in MVA-auxotrophic screening host; format: cell-based, E. coli; conditions: for growth / complementation of the lower MVA pathway in screening host in presence of MVA: 500 μM MVA
[7] = In vitro metabolite measurement, substrate conversion by crude E. coli lysate, substrate MVA; format: biochemical; conditions: crude extract from E. coli DH10b overexpressing S378Pa3-2
Method: as §2, §3

[8] = listed as Herpetosiphon aurantiacus ATCC 23779 PMevDC

| Molecule | kcat ± SD, Diphosphomevalonate [1] | Km [1] [µM] | activity of crude extract on MVPP [2] | solubility of expressed enzyme with or without His-tag [3] | kcat ± SD, Phosphomevalonate [4] | activity of crude extract on MVP [5] | use of IP as substrate [6] | growth / complementation of the lower MVA pathway in screening host in presence of MVA (screening host V. 05) | growth / complementation of the lower MVA pathway in screening host in presence of MVA (screening host V. 05; listed as cds#2) | growth in presence of Fosmidomycin (screening host V. 05; Fosmidomycin 32 μg/ml, 500 μM MVA supplied) | use of MVA as substrate [7] | kcat ± SD, Diphosphomevalonate [1, 8] | kcat ± SD, Phosphomevalonate [4, 8] [s⁻¹] |
| --- | --- | --- | --- | --- | --- | --- | --- | --- | --- | --- | --- | --- | --- |
| B1 | 11.6 s⁻¹ and 11.6 ± 0.6 s⁻¹ | 44 | – | – | – | – | – | – | – | – | – | – | – |
| B2 | 1.09 s⁻¹ and 1.09 ± 0.09 s⁻¹ | 22 | some activity on MVPP | soluble | 2.9 s⁻¹ and 2.9 ± 0.5 s⁻¹ | activity on MVP | not used as substrates | sustained growth | able to complement the lower MVA pathway | grew unrestricted | not used as substrates | – | – |
| B3 | <0.02* s^−1 | – | – | soluble | 3.3 ± 0.2 s⁻¹ | – | – | – | – | – | – | less than 0.02 s^−1 | 3.3 |
| B4 | – | – | – | soluble | – | – | – | – | – | – | – | – | – |
